{"source": "patent US20250277029A1", "about": "(Amgen, published 2025)", "binders": {"B1": {"name": "LIBC673982-1 (IgG1 SEFL2 mAb) (antibody, V domains shown)", "VH": "QVQLQESGPGLVKPSQTLSLTCTVSGGSIRRGGDYWSWIRQHPGKGLEWIGHIYYTGSTTYNPSFRGRVRISVNTYKNQFSLKLSSVTAADTAVYYCARDYDISGYSYYYYGMDVWGQGTTVTVSS", "VL": "not shown"}, "B2": {"name": "LIBC674200-1 (IgG1 SEFL2 mAb) (antibody, V domains shown)", "VH": "B1 VH with I53V, S58Q, T60A, S64N, G67N, D100G, I103V", "VL": "DIVMTQSPLSLPVTPGEPASISCRSSQSLLHRSGYNYLDWYLQKPGQSPQLLIYLGSNRASGVPGRFSGSGSGTDFTLKISRVEAEDVGVYYCMQSLQTPRTFGQGTKVEIKR"}, "B3": {"name": "LIBC674090-1 (IgG1 SEFL2 mAb) (antibody, V domains shown)", "VH": "B1 VH with T56A, T60A, S64N, D100G, I103T, M113L", "VL": "B2 VL with L55Q, G65D"}, "B4": {"name": "LIBC674200-1 (LC: G76D) (IgG1 SEFL2 mAb) (antibody, V domains shown)", "VH": "B1 VH with I53V, S58Q, T60A, S64N, G67N, D100G, I103V", "VL": "not shown"}, "B5": {"name": "LIBC680800-1 (IgG1 SEFL2 mAb) (antibody, V domains shown)", "VH": "QVQLQESGPGLVKPSQTLSLTCTVSGGSIRRGGDYWAWIRQHPGKGLEWIGHIYQTGSTNYNPRFKGRATISVNTYKNQFSLKLSSVTAADTAVYYCARNYDTLTGYSYYYYGMDVWGQGTTVTVSS", "VL": "DIQMTQSPSSLSASVGDRVTITCRASQSISSYLNWYQQKPGKAPKLLIYSARALSSGVPSRFSGSGSGTDFTLTISSLQPEDFATYYCQQYRKFPLTFGGGTKVEIKR"}, "B6": {"name": "LIBC681594-1 (IgG1 SEFL2 mAb) (antibody, V domains shown)", "VH": "B5 VH", "VL": "B5 VL with S50K, A53K, Y91F, R92G, K93S, F94M"}, "B7": {"name": "LIBC680812-1 (IgG1 SEFL2 mAb) (antibody, V domains shown)", "VH": "B5 VH with A37G, I53V, N60K, R64S, G67D", "VL": "B5 VL with A53R, K93S, F94Y, L96I"}, "B8": {"name": "LIBC681737-1(LC:P12S) (IgG1 SEFL2 mAb) (antibody, V domains shown)", "VH": "B5 VH with I53V, Q55Y, G67D, L104V", "VL": "B5 VL with A53R, S55A, R92Y, K93H, F94P, L96I"}, "B9": {"name": "LIBC681593-1 (IgG1 SEFL2 mAb) (antibody, V domains shown)", "VH": "B5 VH", "VL": "B5 VL with S50N, A53R, S55G, K93S, F94S, L96V"}}, "note": "Changes are numbered by the printed parent chain. Numbers in names are those of the source."}
{"target": "human CB1 on stably transfected CB1 CHO cells (human, UniProt P21554 1-472)", "sequence (P21554 whole entry)": "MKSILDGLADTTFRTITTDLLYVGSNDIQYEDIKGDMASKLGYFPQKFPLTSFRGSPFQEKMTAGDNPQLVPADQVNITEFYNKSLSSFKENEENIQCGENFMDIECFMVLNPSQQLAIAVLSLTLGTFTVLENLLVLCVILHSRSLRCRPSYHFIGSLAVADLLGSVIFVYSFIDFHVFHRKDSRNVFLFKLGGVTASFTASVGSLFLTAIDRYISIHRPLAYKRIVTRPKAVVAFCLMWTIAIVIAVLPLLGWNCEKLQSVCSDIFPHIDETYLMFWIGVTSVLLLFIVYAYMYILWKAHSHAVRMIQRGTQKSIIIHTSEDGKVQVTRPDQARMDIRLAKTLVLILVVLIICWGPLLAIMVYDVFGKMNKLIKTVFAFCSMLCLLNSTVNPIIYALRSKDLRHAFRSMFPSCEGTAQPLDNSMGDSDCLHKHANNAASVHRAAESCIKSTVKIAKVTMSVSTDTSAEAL", "assay": "cell-based or functional assay", "units": {"IC50 (nM, n = 4), antagonist activity, TR-FRET cAMP assay": "nM"}}
{"binder": "B1", "IC50 (nM, n = 4), antagonist activity, TR-FRET cAMP assay": 2.11}
{"binder": "B2", "IC50 (nM, n = 4), antagonist activity, TR-FRET cAMP assay": 2.39}
{"binder": "B3", "IC50 (nM, n = 4), antagonist activity, TR-FRET cAMP assay": 1.76}
{"binder": "B4", "IC50 (nM, n = 4), antagonist activity, TR-FRET cAMP assay": 2.23}
{"binder": "B5", "IC50 (nM, n = 4), antagonist activity, TR-FRET cAMP assay": 1.57}
{"binder": "B6", "IC50 (nM, n = 4), antagonist activity, TR-FRET cAMP assay": 1.24}
{"binder": "B7", "IC50 (nM, n = 4), antagonist activity, TR-FRET cAMP assay": 0.68}
{"binder": "B8", "IC50 (nM, n = 4), antagonist activity, TR-FRET cAMP assay": 0.55}
{"binder": "B9", "IC50 (nM, n = 4), antagonist activity, TR-FRET cAMP assay": 0.61}
